This experiment addresses T1, Staphylococcus haemolyticus AcrIIA13b, wild type, with C-terminal 6xHis tag (Staphylococcus haemolyticus).
T1 construct: Monomer and dimer peaks coexist in SEC; also called shAcrIIA13b; wild-type AcrIIA13b; source: E. coli BL21 (DE3), purified (Ni-NTA, SEC)
As to the kind of experiment: ITC; PBS pH 7.4, 20 °C; AcrIIA13b (500 μM) injected into the target protein (50 μM) in the cell, 25 injections; single-site model. The following applies: both partners purified.

B1: SauCas9 WED-PI domain construct, His-tagged (domain or fragment)
chain: LYSTRKDDKGNTLIVNNLNGLYDKDNDKLKKLINKSPEKLLMYHHDPQTYQKLKLIMEQYGDEKNPLYKYYEETGNYLTKYSKKDNGPVIKKIKYYGNKLNAHLDITDDYPNSRNKVVKLSLKPYRFDVYLDNGVYKFVTVKNLDVIKKENYYEVNSKCYEEAKKLKKISNQAEFIASFYNNDLIKINGELYRVIGVNNDLLNRIEVNMIDITYREYLENMNDKRPPRIIKTIASKTQSIKKYSTDILGNLYEVKSKKHPQIIKKG
As for B1, the Kd is 120 nM.

B2: SauCas9 WED (wedge-like) domain, His-tagged (domain or fragment)
chain: LYSTRKDDKGNTLIVNNLNGLYDKDNDKLKKLINKSPEKLLMYHHDPQTYQKLKLIMEQYGDEKNPLYKYYEETGNYLTKYSKKDNGPVIKKIKYYGNKLNAHLDITDDYPNSRNKVVKLSL
In turn, B2 yielded a Kd of 3210 nM.

The values above are taken from publication PMC13147308, “Investigating the molecular mechanisms underlying the anti‐CRISPR function of AcrIIA13b protein” (The Febs Journal, 2025).
